The labels stand for the following.
T1: CD3W147 (homodimeric CD3εγ-Fc) (human, biotinylated)
T1 construct: also called recombinant CD3
T1 chain: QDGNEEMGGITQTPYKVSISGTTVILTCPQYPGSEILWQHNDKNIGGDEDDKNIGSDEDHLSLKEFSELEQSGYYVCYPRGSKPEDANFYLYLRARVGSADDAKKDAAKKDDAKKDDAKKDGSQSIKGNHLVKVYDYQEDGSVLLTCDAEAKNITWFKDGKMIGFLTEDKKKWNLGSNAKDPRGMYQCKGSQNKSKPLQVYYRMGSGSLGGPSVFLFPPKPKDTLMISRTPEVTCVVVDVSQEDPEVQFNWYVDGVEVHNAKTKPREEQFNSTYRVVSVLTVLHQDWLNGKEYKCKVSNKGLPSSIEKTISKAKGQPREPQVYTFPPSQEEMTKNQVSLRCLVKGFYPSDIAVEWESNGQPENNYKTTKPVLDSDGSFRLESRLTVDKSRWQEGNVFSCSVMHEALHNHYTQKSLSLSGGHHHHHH

B1: MHGB687 (antibody, human IgG1, kappa, V domains shown)
VH: QLQLQESGPGLVKPSETLSLMCTVSGGSITSSSYYWGWIRQPPGKGLEWIGNIYYSGTTYYNPSLKSRVTISVDTSKNQFSLKLSSVTAADTAVYYCAAGARDFDSWGQGSLVTVSS
VL: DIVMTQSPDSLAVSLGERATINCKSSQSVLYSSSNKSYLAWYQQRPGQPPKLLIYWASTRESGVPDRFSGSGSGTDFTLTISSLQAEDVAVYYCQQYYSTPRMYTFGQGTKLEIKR
notes: IgG1
B2: MHGB688 (antibody, human IgG1, kappa, V domains shown)
VH: EVQLLESGPGLVKPSQTLSLTCVISGDSVSSNRAAWNWIRQSPSRGLEWLGRTYYRSKWYNDYAVSVKSRITINSDTSKNQISLQLNSVTPEDTAVYYCARVRPGIPFDYWGQGTPVTVSS
VL: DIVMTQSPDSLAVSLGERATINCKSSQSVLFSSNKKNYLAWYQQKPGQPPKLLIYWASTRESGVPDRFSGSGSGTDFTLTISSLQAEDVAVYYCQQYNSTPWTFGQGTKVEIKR
notes: IgG1
B3: MHGB694 (antibody, human IgG1, kappa, V domains shown)
VH: EVQLLESGGGLVQPGGSLRLSCAASGFTFSSYAMHWVRQAPGKGLDWVSGISGSGFSTYYVDSVKGRFTISRDNSKHTLYLQMNSLRAEDTAVYYCAKDNLVAGTVFDYWGQGTLVTVSS
VL: not shown
notes: IgG1
B4: MHGB672 (antibody, human IgG1, kappa, V domains shown)
VH: QVQLQQSGPGLVKPSQTLSLTCAISGDSVSSNRAAWNWIRQTPSRGLEWLGRTYYRSEWYNDYAVSVKSRITINPDTSKNQFSLQLNSVTPEDTAVYYCARVRAAVPFDYWGQGTLVTVSS
VL: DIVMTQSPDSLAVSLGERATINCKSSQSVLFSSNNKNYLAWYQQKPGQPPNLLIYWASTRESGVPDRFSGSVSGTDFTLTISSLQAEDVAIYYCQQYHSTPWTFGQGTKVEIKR
notes: IgG1
B5: MHGB668 (antibody, human IgG1, kappa, V domains shown)
VH: QVQLQQSGPGLVKPSQTLSLTCAISGDSVSNNSAAWNWIRQSPSRGLEWLGRTYYRSKWYNDYAVSVKSRITINPDTSKNQFSLQLNSVTPEDTAVYYCARYGSGTLLFDYWGQGTLVTVSS
VL: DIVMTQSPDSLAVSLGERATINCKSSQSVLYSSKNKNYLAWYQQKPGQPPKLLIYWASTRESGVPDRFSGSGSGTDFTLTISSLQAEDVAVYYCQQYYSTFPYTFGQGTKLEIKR
notes: IgG1
B6: MHGB669 (antibody, human IgG1, kappa, V domains shown)
VH: QVQLQQSGPGLVRPSQTLSVTCAISGDSVSSNSASWNWIRQSPSRGLEWLGRTYYRSEWFNDYAVSVKSRVTINPDTSKNQLSLQLNSVIPEDTAVYYCAREARIGVAGKGFDYWGQGTLVTVSS
VL: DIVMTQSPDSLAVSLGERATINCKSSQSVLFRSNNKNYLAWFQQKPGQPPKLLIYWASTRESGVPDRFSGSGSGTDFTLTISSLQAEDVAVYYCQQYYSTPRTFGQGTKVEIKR
notes: IgG1
B7: CD3W245-HL-E.c. (scFv)
scFv: EVQLVESGGGLVKPGGSLRLSCAASGFTFSRYNMNWVRQAPGKGLEWVSSISTSSNYIYYADSVKGRFTFSRDNAKNSLDLQMSGLRAEDTAIYYCTRGWGPFDYWGQGTLVTVSSGTEGKSSGSGSESKSTDIQMTQSPSSLSASVGDRVTITCRARQSIGTAIHWYQQKPGKAPKLLIKYASESISGVPSRFSGSGSGTDFTLTISSLQPEDFATYYCQQSGSWPYTFGQGTKLEIKGPGGQHHHHHHGAYPYDVPDYAS
notes: E. coli supernatant
B8: CD3W246-HL-E.c. (scFv)
scFv: B7 scFv with L210V
notes: E. coli supernatant
B9: CD3W238-HL-E.c. (scFv)
scFv: B7 scFv with K181Y, G224N
notes: E. coli supernatant
B10: CD3W243-HL-E.c. (scFv)
scFv: B7 scFv with L210V, G224N
notes: E. coli supernatant
B11: CD3W247-HL-E.c. (scFv)
scFv: B7 scFv with K181Y
notes: E. coli supernatant
B12: CD3W242-HL-E.c. (scFv)
scFv: B7 scFv with G224N
notes: E. coli supernatant
B13: CD3W244-HL-E.c. (scFv)
scFv: B7 scFv with K181Y, L210V
notes: E. coli supernatant
B14: CD3W234-HL-E.c. (scFv)
scFv: EVQLVESGGGLVKPGGSLRLSCAASGFTFSRYNMNWVRQAPGKGLEWVSSISTSSNYIYYADSVKGRFTFSRDNAKNSLDLQMSGLRAEDTAIYYCTRGWGPFDYWGQGTLVTVSSGTEGKSSGSGSESKSTDILLTQSPGILSVSPGERVSFSCRARQSIGTAIHWYQQRTNGSPRLLIKYASESISGIPSRFSGSGSGTDFTLTINSVESEDIADYYCQQSNSWPYTFGGGTKLEIKGPGGQHHHHHHGAYPYDVPDYAS
notes: E. coli supernatant; also called CD3B815-HL-scFV
B15: CD3W248-HL-E.c. (scFv)
scFv: B14 scFv with N224G
notes: E. coli supernatant
B16: MHGB738 (antibody, human IgG1, kappa, V domains shown)
VH: B2 VH with E1Q, L5Q, E6Q, V23A, S75P
VL: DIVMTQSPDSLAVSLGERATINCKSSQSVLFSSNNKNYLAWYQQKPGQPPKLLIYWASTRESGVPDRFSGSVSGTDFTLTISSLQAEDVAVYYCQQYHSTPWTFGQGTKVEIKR
notes: IgG1; also called GL optimized B688

Positions count from the first letter of the chain named.

A word on the Kd: it is the free concentration of one partner at which half of the binding sites on the other are occupied at equilibrium, for simple one-to-one binding. Read a low Kd as a tighter complex. As a reminder, the koff is a measure of how fast the partners let go of each other. What is called kon is a measure of how fast the partners come together. Read a low kon as slower complex formation. As a reminder, the EC50 is the concentration giving half of the maximal effect. The low end stands for a more potent agent, the high end for a less potent agent.

The target in one test is T2, HLA-G on cells (K562-HLA-G and HLA-G expressing tumor cells) (human).
T2 construct: whole, on cells; also called HLA-G1
Description: flow cytometry, IgG1 mAb on cells expressing HLA-G. Background: Flow cytometry measures light scatter and fluorescence of single cells or particles in a stream.
With B1, the “GeoMean fluorescence (maximum value)” value came to 528000.

As for B2, the “GeoMean fluorescence (maximum value)” value was found to be 482000.

In the case of B3, the “GeoMean fluorescence (maximum value)” value worked out at 473000.

B4: the “GeoMean fluorescence (maximum value)” value was 522000.

Regarding B5, the “GeoMean fluorescence (maximum value)” value worked out at 591000.

Consider B6, for which the “GeoMean fluorescence (maximum value)” value worked out at 616000.

The target of another test is T3, Human CD3 epsilon (CD3ε) of the T cell receptor complex on cells (human, UniProt P07766 23-207).
T3 construct: On Jurkat cells and primary human (pan) T cells; also called T-cell surface glycoprotein CD3 epsilon chain; T3E
T3 sequence (P07766 23-207 limits assumed, one chain of several): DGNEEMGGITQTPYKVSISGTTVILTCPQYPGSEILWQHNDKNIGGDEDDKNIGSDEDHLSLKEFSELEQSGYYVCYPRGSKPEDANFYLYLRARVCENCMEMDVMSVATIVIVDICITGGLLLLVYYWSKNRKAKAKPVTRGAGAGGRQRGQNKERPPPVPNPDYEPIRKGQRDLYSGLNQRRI
In words: flow cytometry, E. coli supernatant on human T cells.
On to B7, for which the “MFI (n = 2)” value was found to be 178000.

On to B8, for which the “MFI (n = 2)” value came out at 154000.

On to B9, for which the “MFI (n = 2)” value turned out to be 137000.

With B10, the “MFI (n = 2)” value is 111000.

B11: the “MFI (n = 2)” value was found to be 111000.

For B12, the “MFI (n = 2)” value was 126000.

In the case of B13, the “MFI (n = 2)” value was found to be 166000.

On to B14, for which the “MFI (n = 2)” value came out at 66800.

On to B15, for which the “MFI (n = 2)” value is 60400.

In a further test the target is T4, MHGW8 (B2m-3(G4S)-HLA-G1-G4S-Avi) (human, biotinylated (Avi tag) in the blocking assay).
T4 construct: Single chain β2m-HLA-G1; also called soluble HLA-G1 extracellular domain; recombinant biotinylated HLA-G1
In words: SPR, mAb captured by goat anti-human Fc, MHGW8 flowed. For orientation: In SPR one partner is held on a chip, and binding of the other changes the refractive index at the surface.
Molecule B1 yielded a Kd of 0.809 nM, a koff of 0.000153 s⁻¹ and a kon of 189000 M⁻¹ s⁻¹.

B2 yielded a Kd of 0.4 nM, a koff of 0.000263 s⁻¹ and a kon of 658000 M⁻¹ s⁻¹.

Turning to B16, binding was characterised by a dissociation constant (Kd) of 0.139 nM.

Molecule B3 returned a Kd of 1.15 nM, a koff of 0.0024 s⁻¹ and a kon of 2.08e+06 M⁻¹ s⁻¹.

For the molecule B4, the Kd is 0.55 nM, the koff was 0.00179 s⁻¹ and the kon turned out to be 3.25e+06 M⁻¹ s⁻¹.

Molecule B6 came in with a Kd of 1.44 nM, a koff of 0.000453 s⁻¹ and a kon of 315000 M⁻¹ s⁻¹.

In a further test the target is T1, CD3W147 (homodimeric CD3εγ-Fc). Description: ELISA, E. coli supernatant (heated to 60° C., cooled) on biotinylated CD3W147. In general terms: An ELISA detects its analyte on a solid surface through an enzyme-linked reagent.
On to B7, for which the binding result was “binds”.

With B8, the binding result is given as “binds”.

Regarding B9, the binding result is “binds”.

On to B10, for which the binding result is “binds”.

B11: the binding result is given as “binds”.

In the case of B12, the binding result is on record as “binds”.

B13: the binding result is listed as “binds”.

As to B14, the binding result is given as “binds”.

As to B15, the binding result is recorded as “binds”.

In the next test the target is T4, MHGW8 (B2m-3(G4S)-HLA-G1-G4S-Avi). In words: flow cytometry competition: blocks MHGW8-dextramer binding to ILT2 on HEK293T cells (competitor ILT2).
B2: the EC50 turned out to be 1720 nM.

B16 displayed an EC50 of 1.6 nM.

Molecule B3 came in with an EC50 of 644 nM.

As to B4, the EC50 was 2120 nM.

In turn, B6 returned an EC50 of 1700 nM.

The next test shares this target. Description: flow cytometry competition: blocks MHGW8-dextramer binding to ILT4 on HEK293T cells (competitor ILT4).
Molecule B1 registered an EC50 of 1860 nM.

In turn, B2 had an EC50 of 1420 nM.

As to B16, the midpoint of the response, the EC50, lay at 1.6 nM.

For B3, a half-maximal effect (EC50) was put at 200 nM.

The molecule B4 had an EC50 of 1610 nM.

Turning to B6, the EC50 was found to be 1590 nM.

Values taken from patent US20220411504A1 (Janssen / Centocor, published 2022).
